In experiment [1] the target is T1, recombinant mouse MAdCAM-1 (mouse, UniProt Q61826 22-364, limits assumed).
T1 construct: also called mMAdCAM-1
T1 sequence (looked up): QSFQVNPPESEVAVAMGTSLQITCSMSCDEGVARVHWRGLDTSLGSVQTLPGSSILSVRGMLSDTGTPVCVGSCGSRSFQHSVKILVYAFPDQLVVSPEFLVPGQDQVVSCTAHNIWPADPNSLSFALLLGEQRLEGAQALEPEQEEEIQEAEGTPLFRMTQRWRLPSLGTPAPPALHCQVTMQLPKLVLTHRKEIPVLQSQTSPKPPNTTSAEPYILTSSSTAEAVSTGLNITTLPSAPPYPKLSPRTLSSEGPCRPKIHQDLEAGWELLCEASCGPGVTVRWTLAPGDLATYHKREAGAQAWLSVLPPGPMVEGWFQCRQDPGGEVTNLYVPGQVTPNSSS
As to the kind of experiment: Octet. Background: Biolayer interferometry detects binding as a change in optical thickness at a sensor tip.

The target in another experiment is T2, human MAdCAM protein (human, UniProt Q13477 19-317, limits assumed).
T2 construct: also called soluble monomeric human MAdCAM; recombinant human MAdCAM
T2 sequence (looked up): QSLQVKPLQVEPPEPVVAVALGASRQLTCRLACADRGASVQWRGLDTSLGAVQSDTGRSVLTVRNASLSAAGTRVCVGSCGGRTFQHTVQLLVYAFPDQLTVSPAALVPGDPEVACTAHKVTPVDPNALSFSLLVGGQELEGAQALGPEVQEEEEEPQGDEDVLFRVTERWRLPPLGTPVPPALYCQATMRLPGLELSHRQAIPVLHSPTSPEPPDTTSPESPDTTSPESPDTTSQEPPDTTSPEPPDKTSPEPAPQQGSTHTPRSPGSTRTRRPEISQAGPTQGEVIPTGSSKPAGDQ
As to the kind of experiment: Octet.

Experiment [2] concerns the target T3, mouse MAdCAM expressed on cells (mouse, UniProt Q61826 22-405).
T3 construct: whole, on cells
T3 sequence (looked up): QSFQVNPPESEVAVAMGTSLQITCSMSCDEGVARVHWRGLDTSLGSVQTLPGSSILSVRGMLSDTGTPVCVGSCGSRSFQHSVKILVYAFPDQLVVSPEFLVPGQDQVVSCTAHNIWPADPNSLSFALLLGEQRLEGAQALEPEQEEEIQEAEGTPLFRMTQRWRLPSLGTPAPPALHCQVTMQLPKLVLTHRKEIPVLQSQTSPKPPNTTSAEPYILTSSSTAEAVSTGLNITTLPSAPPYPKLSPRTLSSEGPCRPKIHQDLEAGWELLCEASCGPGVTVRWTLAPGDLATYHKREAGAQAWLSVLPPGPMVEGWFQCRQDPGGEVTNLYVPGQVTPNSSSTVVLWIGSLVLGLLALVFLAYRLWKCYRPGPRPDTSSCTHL
As to the kind of experiment: cell binding.

In experiment [3] the target is T4, human MAdCAM expressed on cells (human, UniProt Q13477 19-382).
T4 construct: whole, on cells
T4 sequence (looked up): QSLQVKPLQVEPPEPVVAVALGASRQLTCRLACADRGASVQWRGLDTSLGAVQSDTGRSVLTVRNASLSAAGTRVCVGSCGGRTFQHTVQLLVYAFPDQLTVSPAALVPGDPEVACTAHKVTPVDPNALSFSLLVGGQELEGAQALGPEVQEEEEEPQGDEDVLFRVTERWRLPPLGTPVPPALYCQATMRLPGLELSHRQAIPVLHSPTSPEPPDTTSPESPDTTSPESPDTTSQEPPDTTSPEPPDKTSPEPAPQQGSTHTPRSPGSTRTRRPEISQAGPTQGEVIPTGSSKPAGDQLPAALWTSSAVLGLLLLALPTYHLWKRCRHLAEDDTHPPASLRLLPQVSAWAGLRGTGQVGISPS
The experiment can be described thus: cell binding.

B1: MAdCAM Antibody Table 2 clone 20 (antibody, V domains shown)
VH: EVQLLESGGGLVQPGGSLRLSCAASGFTFSDSAMHWVRQAPGKGLEWVSAISGSGSTIYYADSVKGRFTISRDNSKNTLYLQMNSLRAEDTAVYYCVSDIAVAGHWYFDLWGRGTLVTVSS
VL: DIQMTQSPSSLSASVGDRVTITCRASQSISTFLNWYQQKPGKAPKLLIYAASRLEGGVPSRFSGSGSGTDFTLTISSLQPEDFATYYCQQANSFPLTFGPGTKVDIK
notes: IgG format
As for B1, the binding result in experiment [1] is given as “no binding”; in the experiment with human MAdCAM protein, “binds”; in experiment [2], “no binding”; in experiment [3], “binds”.

B2: MAdCAM Antibody Table 2 clone 24 (antibody, V domains shown)
VH: EVQLVESGGGLVKPGGSLRLSCAASGFTFSSYWMSWVRQAPGKGLEWVSRISSDGRITTYAAPVKGRFTISRDDSKNTLYLQMNSLKTEDTAVYYCARGTSYCTGGVCDIDYWGQGTLVTVSS
VL: DIQMTQSPSSLSASVGDRVTITCRASQSIGRNLNWYQQKPGKAPKLLIYSASNLQSGVPSRFSGSGSGTDFTLTISSLQPEDFATYYCQQSYSIPLTFGPGTKVDIK
notes: IgG format
B2: the results for the binding result in experiment [1], in experiment [2] and in experiment [3] were “no binding”, “no binding” and “binds”, respectively.

B3: MAdCAM Antibody Table 2 clone 7 (antibody, V domains shown)
VH: EVQLLESGGGLVQPGGSLRLSCAASGFTFSDYQMSWVRQAPGKGLEWVAIISHADGGFKDYADSVKGRFTISRDNSKNTLYLQMNSLRAEDTAVYYCAKPYSSGWSAVYYFDYWGQGTLVTVSS
VL: DIQMTQSPSSLSASVGDRVTITCRASRGITNDLGWYQQKPGKAPKLLIYAASTLQSGVPSRFSGSGSGTDFTLTISSLQPEDFATYYCQQAYSFPWTFGQGTKVEIK
notes: IgG format
Regarding B3, the binding result in experiment [1], in experiment [2] and in experiment [3] was “binds” in each case.

B4: MAdCAM Antibody Table 2 clone 11 (antibody, V domains shown)
VH: EVQLLESGGGLVQPGGSLRLSCAASGFTFSDYYMNWVRQAPGKGLEWVSVIGESGGSTYYADSVKGRFTISRDNSKNTLYLQMNSLRAEDTAVYYCAADPVSRWPKHGGGDYWGQGTLVTVSS
VL: DIQMTQSPSSLSASVGDRVTITCRASQGISSSLAWYQQKPGKAPKLLIYAASTLQSGVPSRFSGSGSGTDFTLTISSLQPEDFATYYCQQSYSTPWTFGQGTKVEIK
notes: IgG format
B4: the binding result (in experiment [1]; with human MAdCAM protein; in experiment [2]; in experiment [3]) was “binds” in each case.

B5: MAdCAM Antibody Table 2 clone 8 (antibody, V domains shown)
VH: QVQLVQSGAEVKKPGASVKVSCKASGYTFTGYHIHWVRQAPGQGLEWMGIINPSGGSTIYAQKFQGRVTMTRDTSTSTVYMELSSLRSEDTAVYYCAKDWSSWYLGPFDYWGQGTLVTVSS
VL: DIQMTQSPSSLSASVGDRVTITCRASQNISSSLNWYQQKPGKAPKLLIYAASSLQSGVPSRFSGSGSGTDFTLTISSLQPEDFATYYCQQSYTTPYTFGQGTKVEIK
notes: IgG format
For the molecule B5, the binding result in experiment [1], in experiment [2] and in experiment [3] was “binds” in each case.

B6: MAdCAM Antibody Table 2 clone 17 (antibody, V domains shown)
VH: QVQLVQSGAEVKKPGSSVKVSCKASGYTFTDYHIHWVRQAPGQGLEWMGGIVPRSGSTTYAQKFQGRVTITADESTSTAYMELSSLRSEDTAVYYCAKDESSGWYYFDYWGQGTLVTVSS
VL: DIVMTQSPLSLPVTPGEPASISCRSSQSLLHSNGYNYLDWYLQKPGQSPQLLIYSAYNRASGVPDRFSGSGSGTDFTLKISRVEAEDVGVYYCMQALQTPLTFGQGTKVEIK
notes: IgG format
Turning to B6, the binding result in experiment [1] is “no binding”; in the experiment with human MAdCAM protein, “binds”; in experiment [2], “no binding”; in experiment [3], “binds”.
